# Reference: paper PMC8865534
# Biological target: NHE1-ECL1-rIgG, the first extracellular loop of the ALV-J receptor NHE1 fused to rabbit IgG Fc (expressed in DF-1 cells) (chicken)
substance,measurement,value
"Env protein (envelope glycoprotein, gp85-gp37) of ALV-J strain TBC-J6, wild type (natural protein)",reduction of ALV-J infection (p27 mRNA level by qPCR) of DF-1 cells transfected with 250 ng pCAGGS-env(wt) for 2 days; the receptor is the endogenous NHE1 of DF-1 cells,91%
